Experimental data from the supplement of paper PMC10567573.

B1: RAB40A (parent)
chain: NWLGRPSKVLSLQDLCCRTIVSCT

Variants of: B1
Assay: protein stability index of a GFP-peptide fusion (GPS, HEK-293T) (PSI 1-6); higher = more stable
Settings: c terminus: a fixed tail appended
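Further: lentivirally expressed fusions sorted by FACS into six bins by GFP to DsRed ratio, PSI derived from sequencing read proportions per bin multiplied by bin number.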

Variant	protein stability index
NWLGRPSKVLSLQPLCCRTIVSCT [D14P]	1.97
NWLGRPSKVLSLQVLCCRTIVSCT [D14V]	1.72
NWLGRPSKVLSLQSLCCRTIVSCT [D14S]	2.07
NWLGRPSKVLSLQRLCCRTIVSCT [D14R]	1.51
NWLGRPSKVLSLQQLCCRTIVSCT [D14Q]	2.12
NWLGRPSKVLSLQHLCCRTIVSCT [D14H]	2.13
NWLGRPSKVLSLQYLCCRTIVSCT [D14Y]	2.04
NWLGRPSKVLSLQCLCCRTIVSCT [D14C]	1.78
NWLGRPSKVLSLQTLCCRTIVSCT [D14T]	2.11
NWLGRPSKVLSLQFLCCRTIVSCT [D14F]	2.14
NWLGRPSKVLSLQLLCCRTIVSCT [D14L]	1.67
NWLGRPSKVLSLQELCCRTIVSCT [D14E]	2.54
NWLGRPSKVLSLQKLCCRTIVSCT [D14K]	1.9
NWLGRPSKVLSLQGLCCRTIVSCT [D14G]	2.45
NWLGRPSKVLSLQNLCCRTIVSCT [D14N]	2.29
NWLGRPSKVLSLQILCCRTIVSCT [D14I]	1.48
NWLGRPSKVLSLQWLCCRTIVSCT [D14W]	1.84
NWLGRPSKVLSLQMLCCRTIVSCT [D14M]	1.58
NWLGRPSKVLSLQALCCRTIVSCT [D14A]	1.99
NWLGRPSKVLSYQDLCCRTIVSCT [L12Y]	3.31
NWLGRPSKVLSKQDLCCRTIVSCT [L12K]	2.15
NWLGRPSKVLSVQDLCCRTIVSCT [L12V]	2.87
NWLGRPSKVLSAQDLCCRTIVSCT [L12A]	1.38
NWLGRPSKVLSIQDLCCRTIVSCT [L12I]	2.27

Variant	protein stability index
NWLGRPSKVLSCQDLCCRTIVSCT [L12C]	1.79
NWLGRPSKVLSHQDLCCRTIVSCT [L12H]	2.31
NWLGRPSKVLSNQDLCCRTIVSCT [L12N]	1.46
NWLGRPSKVLSPQDLCCRTIVSCT [L12P]	1.48
NWLGRPSKVLSWQDLCCRTIVSCT [L12W]	2.25
NWLGRPSKVLSFQDLCCRTIVSCT [L12F]	2.75
NWLGRPSKVLSMQDLCCRTIVSCT [L12M]	1.95
NWLGRPSKVLSQQDLCCRTIVSCT [L12Q]	2.31
NWLGRPSKVLSEQDLCCRTIVSCT [L12E]	1.8
NWLGRPSKVLSSQDLCCRTIVSCT [L12S]	1.73
NWLGRPSKVLSGQDLCCRTIVSCT [L12G]	3.06
NWLGRPSKVLSTQDLCCRTIVSCT [L12T]	1.81
NWLGRPSKVLSRQDLCCRTIVSCT [L12R]	2.23
NWLGRPSKVLSDQDLCCRTIVSCT [L12D]	1.8
NWLGRPSKVLSLSDLCCRTIVSCT [Q13S]	2.67
NWLGRPSKVLSLMDLCCRTIVSCT [Q13M]	2.12
NWLGRPSKVLSLTDLCCRTIVSCT [Q13T]	2.51
NWLGRPSKVLSLWDLCCRTIVSCT [Q13W]	2.82
NWLGRPSKVLSLRDLCCRTIVSCT [Q13R]	3.23
NWLGRPSKVLSLIDLCCRTIVSCT [Q13I]	2.93
NWLGRPSKVLSLVDLCCRTIVSCT [Q13V]	2.81
NWLGRPSKVLSLGDLCCRTIVSCT [Q13G]	2.21
NWLGRPSKVLSLNDLCCRTIVSCT [Q13N]	1.8
NWLGRPSKVLSLEDLCCRTIVSCT [Q13E]	2.41

Variant	protein stability index
NWLGRPSKVLSLHDLCCRTIVSCT [Q13H]	2.62
NWLGRPSKVLSLDDLCCRTIVSCT [Q13D]	1.61
NWLGRPSKVLSLFDLCCRTIVSCT [Q13F]	2.75
NWLGRPSKVLSLYDLCCRTIVSCT [Q13Y]	2.42
NWLGRPSKVLSLCDLCCRTIVSCT [Q13C]	2.42
NWLGRPSKVLSLLDLCCRTIVSCT [Q13L]	2.44
NWLGRPSKVLSLPDLCCRTIVSCT [Q13P]	1.68
NWLGRPSKVLSLKDLCCRTIVSCT [Q13K]	2.86
NWLGRPSKVLSLADLCCRTIVSCT [Q13A]	2.86
NWLGRPSKVLSLQDLCDRTIVSCT [C17D]	2.79
NWLGRPSKVLSLQDLCARTIVSCT [C17A]	2.66
NWLGRPSKVLSLQDLCGRTIVSCT [C17G]	2.34
NWLGRPSKVLSLQDLCKRTIVSCT [C17K]	3.26
NWLGRPSKVLSLQDLCFRTIVSCT [C17F]	2.53
NWLGRPSKVLSLQDLCYRTIVSCT [C17Y]	2.22
NWLGRPSKVLSLQDLCPRTIVSCT [C17P]	1.74
NWLGRPSKVLSLQDLCRRTIVSCT [C17R]	3.23
NWLGRPSKVLSLQDLCIRTIVSCT [C17I]	2.54
NWLGRPSKVLSLQDLCVRTIVSCT [C17V]	2.6
NWLGRPSKVLSLQDLCMRTIVSCT [C17M]	2.54
NWLGRPSKVLSLQDLCQRTIVSCT [C17Q]	3.09
NWLGRPSKVLSLQDLCHRTIVSCT [C17H]	2.88
NWLGRPSKVLSLQDLCWRTIVSCT [C17W]	2.03
NWLGRPSKVLSLQDLCSRTIVSCT [C17S]	2.75

Variant	protein stability index
NWLGRPSKVLSLQDLCNRTIVSCT [C17N]	2.95
NWLGRPSKVLSLQDLCTRTIVSCT [C17T]	3.23
NWLGRPSKVLSLQDLCLRTIVSCT [C17L]	2.77
NWLGRPSKVLSLQDLCERTIVSCT [C17E]	3.08
NWLGRPSKVLSLQDMCCRTIVSCT [L15M]	2.13
NWLGRPSKVLSLQDYCCRTIVSCT [L15Y]	2.15
NWLGRPSKVLSLQDFCCRTIVSCT [L15F]	1.45
NWLGRPSKVLSLQDICCRTIVSCT [L15I]	2.31
NWLGRPSKVLSLQDDCCRTIVSCT [L15D]	2.02
NWLGRPSKVLSLQDWCCRTIVSCT [L15W]	2.1
NWLGRPSKVLSLQDQCCRTIVSCT [L15Q]	2.42
NWLGRPSKVLSLQDSCCRTIVSCT [L15S]	1.96
NWLGRPSKVLSLQDACCRTIVSCT [L15A]	2.15
NWLGRPSKVLSLQDHCCRTIVSCT [L15H]	1.99
NWLGRPSKVLSLQDNCCRTIVSCT [L15N]	2.18
NWLGRPSKVLSLQDVCCRTIVSCT [L15V]	1.72
NWLGRPSKVLSLQDKCCRTIVSCT [L15K]	2.16
NWLGRPSKVLSLQDECCRTIVSCT [L15E]	2.15
NWLGRPSKVLSLQDPCCRTIVSCT [L15P]	1.62
NWLGRPSKVLSLQDGCCRTIVSCT [L15G]	1.74
NWLGRPSKVLSLQDCCCRTIVSCT [L15C]	1.89
NWLGRPSKVLSLQDRCCRTIVSCT [L15R]	2.51
NWLGRPSKVLSLQDTCCRTIVSCT [L15T]	1.92
NWLGRPSKVLSLQDLCCRTWVSCT [I20W]	2.18

Variant	protein stability index
NWLGRPSKVLSLQDLCCRTEVSCT [I20E]	2.04
NWLGRPSKVLSLQDLCCRTHVSCT [I20H]	2.48
NWLGRPSKVLSLQDLCCRTCVSCT [I20C]	2.32
NWLGRPSKVLSLQDLCCRTYVSCT [I20Y]	2.1
NWLGRPSKVLSLQDLCCRTAVSCT [I20A]	1.94
NWLGRPSKVLSLQDLCCRTMVSCT [I20M]	2.83
NWLGRPSKVLSLQDLCCRTSVSCT [I20S]	2.08
NWLGRPSKVLSLQDLCCRTFVSCT [I20F]	1.89
NWLGRPSKVLSLQDLCCRTPVSCT [I20P]	2.42
NWLGRPSKVLSLQDLCCRTRVSCT [I20R]	2.54
NWLGRPSKVLSLQDLCCRTDVSCT [I20D]	2.4
NWLGRPSKVLSLQDLCCRTGVSCT [I20G]	2.47
NWLGRPSKVLSLQDLCCRTKVSCT [I20K]	2.62
NWLGRPSKVLSLQDLCCRTTVSCT [I20T]	1.73
NWLGRPSKVLSLQDLCCRTVVSCT [I20V]	2.14
NWLGRPSKVLSLQDLCCRTQVSCT [I20Q]	2.26
NWLGRPSKVLSLQDLCCRTLVSCT [I20L]	2.74
NWLGRPSKVLSLQDLCCRTNVSCT [I20N]	1.91
NWLGRPSKVLSLQDLKCRTIVSCT [C16K]	2.25
NWLGRPSKVLSLQDLWCRTIVSCT [C16W]	2.79
NWLGRPSKVLSLQDLACRTIVSCT [C16A]	2.5
NWLGRPSKVLSLQDLNCRTIVSCT [C16N]	1.61
NWLGRPSKVLSLQDLHCRTIVSCT [C16H]	1.58
NWLGRPSKVLSLQDLRCRTIVSCT [C16R]	1.75

Variant	protein stability index
NWLGRPSKVLSLQDLMCRTIVSCT [C16M]	1.98
NWLGRPSKVLSLQDLDCRTIVSCT [C16D]	2.2
NWLGRPSKVLSLQDLGCRTIVSCT [C16G]	1.44
NWLGRPSKVLSLQDLVCRTIVSCT [C16V]	2.19
NWLGRPSKVLSLQDLSCRTIVSCT [C16S]	2.31
NWLGRPSKVLSLQDLPCRTIVSCT [C16P]	2.02
NWLGRPSKVLSLQDLYCRTIVSCT [C16Y]	1.44
NWLGRPSKVLSLQDLLCRTIVSCT [C16L]	2.02
NWLGRPSKVLSLQDLECRTIVSCT [C16E]	1.9
NWLGRPSKVLSLQDLQCRTIVSCT [C16Q]	1.51
NWLGRPSKVLSLQDLICRTIVSCT [C16I]	2.17
NWLGRPSKVLSLQDLTCRTIVSCT [C16T]	2.06
NWLGRPSKVLSLQDLFCRTIVSCT [C16F]	2.44
NWLGRPSKVLSLQDLCCCTIVSCT [R18C]	2.35
NWLGRPSKVLSLQDLCCTTIVSCT [R18T]	2.26
NWLGRPSKVLSLQDLCCATIVSCT [R18A]	2.03
NWLGRPSKVLSLQDLCCQTIVSCT [R18Q]	2.26
NWLGRPSKVLSLQDLCCWTIVSCT [R18W]	1.83
NWLGRPSKVLSLQDLCCFTIVSCT [R18F]	1.87
NWLGRPSKVLSLQDLCCYTIVSCT [R18Y]	1.73
NWLGRPSKVLSLQDLCCVTIVSCT [R18V]	2.39
NWLGRPSKVLSLQDLCCHTIVSCT [R18H]	1.98
NWLGRPSKVLSLQDLCCNTIVSCT [R18N]	2.5
NWLGRPSKVLSLQDLCCMTIVSCT [R18M]	1.72

Variant	protein stability index
NWLGRPSKVLSLQDLCCKTIVSCT [R18K]	2.65
NWLGRPSKVLSLQDLCCDTIVSCT [R18D]	1.99
NWLGRPSKVLSLQDLCCLTIVSCT [R18L]	2.11
NWLGRPSKVLSLQDLCCITIVSCT [R18I]	1.68
NWLGRPSKVLSLQDLCCETIVSCT [R18E]	2.49
NWLGRPSKVLSLQDLCCGTIVSCT [R18G]	2
NWLGRPSKVLSLQDLCCPTIVSCT [R18P]	1.61
NWLGRPSKVLSLQDLCCSTIVSCT [R18S]	2.58
NWLGRPSKVLSLQDLCCRAIVSCT [T19A]	2.52
NWLGRPSKVLSLQDLCCRKIVSCT [T19K]	2.69
NWLGRPSKVLSLQDLCCRIIVSCT [T19I]	2.6
NWLGRPSKVLSLQDLCCRFIVSCT [T19F]	2.26
NWLGRPSKVLSLQDLCCRGIVSCT [T19G]	2.07
NWLGRPSKVLSLQDLCCREIVSCT [T19E]	2.53
NWLGRPSKVLSLQDLCCRDIVSCT [T19D]	2.64
NWLGRPSKVLSLQDLCCRHIVSCT [T19H]	2.41
NWLGRPSKVLSLQDLCCRYIVSCT [T19Y]	2.23
NWLGRPSKVLSLQDLCCRWIVSCT [T19W]	1.97
NWLGRPSKVLSLQDLCCRPIVSCT [T19P]	1.86
NWLGRPSKVLSLQDLCCRLIVSCT [T19L]	2.16
NWLGRPSKVLSLQDLCCRNIVSCT [T19N]	2.91
NWLGRPSKVLSLQDLCCRSIVSCT [T19S]	2.51
NWLGRPSKVLSLQDLCCRQIVSCT [T19Q]	2.31
NWLGRPSKVLSLQDLCCRVIVSCT [T19V]	2.22

Variant	protein stability index
NWLGRPSKVLSLQDLCCRRIVSCT [T19R]	2.19
NWLGRPSKVLSLQDLCCRCIVSCT [T19C]	2.04
NWLGRPSKVLSLQDLCCRMIVSCT [T19M]	2.27
NWLGRPSKVLCLQDLCCRTIVSCT [S11C]	1.66
NWLGRPSKVLHLQDLCCRTIVSCT [S11H]	1.92
NWLGRPSKVLRLQDLCCRTIVSCT [S11R]	2.2
NWLGRPSKVLTLQDLCCRTIVSCT [S11T]	2.6
NWLGRPSKVLPLQDLCCRTIVSCT [S11P]	2.14
NWLGRPSKVLFLQDLCCRTIVSCT [S11F]	1.67
NWLGRPSKVLMLQDLCCRTIVSCT [S11M]	1.97
NWLGRPSKVLGLQDLCCRTIVSCT [S11G]	1.54
NWLGRPSKVLQLQDLCCRTIVSCT [S11Q]	2.11
NWLGRPSKVLWLQDLCCRTIVSCT [S11W]	1.77
NWLGRPSKVLLLQDLCCRTIVSCT [S11L]	1.86
NWLGRPSKVLVLQDLCCRTIVSCT [S11V]	2.74
NWLGRPSKVLNLQDLCCRTIVSCT [S11N]	2.22
NWLGRPSKVLKLQDLCCRTIVSCT [S11K]	2.67
NWLGRPSKVLELQDLCCRTIVSCT [S11E]	2.01
NWLGRPSKVLDLQDLCCRTIVSCT [S11D]	1.9
NWLGRPSKVLYLQDLCCRTIVSCT [S11Y]	2.03
